The subject of assay [1] is PD-L1. Description: IHC staining of primary 4T1 breast tumors for PD-L1. Type of assay: in vivo, mouse. Particulars: therapy initiated 7 days after inoculation, resected Day 29/30. The protocol:
Female BALB/c mice were inoculated in the mammary fat pad with syngeneic and highly metastatic 4T1 breast cancer cells to model Stage IV human breast cancer. Nani-P2 immunotherapy was initiated 7 days after tumor cell inoculation. Tumors were assessed by caliper measurements throughout the study and resected on Day 29/30. Immunohistochemical staining (IHC) for PD-L1 and CD8 was performed on formalin-fixed, paraffin embedded specimens of primary 4T1 tumors.

The test system of assay [2] is IFN-γ. The assay can be described thus: ELISA analysis of IFN-γ production by immune spleen cells of 4T1 tumor-bearing mice. It counts as in vivo, mouse. As for the experimental part:
Splenocyte secretion of IFN-γ was assessed by an OptEIA™ ELISA kit (BD Biosciences). Briefly, spleen cells (1×10^5/well) from 4T1 tumor-bearing mice were cultured with or without 5×10^3/well mitomycin C (50 μg/ml)-treated 4T1 cells (used to provide tumor antigens) in DMEM at a 20:1 E:T (effector:[…]) in 96-well plates. Supernatants were collected after 72 hr and kept frozen at −80° C. until analysis without loss of activity. IFN-γ was measured in cell-free supernatants of duplicate wells by ELISA according to the manufacturer's instructions. Tumor-specific IFN-γ production was calculated by subtracting the background values measured in supernatants of spleen cells cultured with medium alone and optical density (OD) values were converted to pg/ml amounts of IFN-γ using a recombinant IFN-γ standard curve. Stimulation index (SI) was calculated as the ratio of IFN-γ in stimulated versus control cultures.
To determine whether cytotoxic T-lymphocytes play a role in tumor rejection induced by Nani-P2 therapy, an IFN-γ ELISA assay (FIG. 7) was performed to compare spleen cells of 4T1 tumor-bearing mice treated either without (Control) or with Nani-P2 (FIG. 7). Spleens were removed under sterile conditions and prepared as described elsewhere (duPre'S. et al. Exp. Mol. Path. 85:174-188, 2008). Briefly, spleens were homogenized and splenocytes, as a rich source of systemic cytolytic T cells and APCs, were co-cultured with mitomycin C-treated 4T1 stimulator cells to induce recall immune responses. Control wells were cultured with medium alone.
On the technique in general: ELISA stands for enzyme-linked immunosorbent assay.

For assay [3], the system named is Human monocytes. Description: CD86 expression of human monocytes cultured with Tat derivative. Type of assay: cell-based. Particulars: cultured 24-48 hours; fluorescent-labeled CD86; compared with ISS (TLR) or LPS. As for the experimental part:
Human monocytes were cultured for 24-48 hours with a Tat derivative (Nani-P2), an immunostimulatory sequence (ISS) of a toll-like receptor (TLR) (FIG. 1), or lipopolysaccharide (LPS) (FIG. 2) and the cells were then washed and stained with fluorescent-labeled CD86.

Assay [4] relates to SM1 breast cancer cells. The assay can be described thus: SM1 mammary carcinoma model, primary tumor growth. It counts as in vivo, mouse. The protocol:
BALB/c mice were injected (SC) with 1×10^4 4 T1, 1×10^5 TS/A or 2×10^5 SM1 cells, respectively, in the left mammary pad on day 0. […] The control group received PBS injection. […] Tumor burden (tumor volume) was measured and recorded three times weekly. Animals were sacrificed when tumors reached a volume of 15 mm in diameter and the tumors harvested and weighed.
The SM1 mammary carcinoma model (FIG. 6B) is initially less aggressive as a primary tumor, and deaths appear to be through mechanisms other than metastatic disease. By day 30 of treatment, SM1 tumors reached a mean volume approximately 33% smaller than either TS/A or 4T1. This indicated a heightened sensitivity of the SM1 tumor to Nani-P2 immunotherapy as compared to 4T1, such that tumor growth was suppressed in 100% of animals for 16 days, and 40% of animals remained in remission even at 28 days following implant and fully one week after termination of the regimen.

Results on one molecule are retold here after patent publication US10159707B2, “Treatment of cancers with immunostimulatory HIV Tat derivative polypeptides” (PIN Pharma, Inc., priority 2013, dated 2018).

B1: Nani-P2: Tat derivative polypeptide SEQ ID NO:3; TF SIVagmVer, cysteine-rich HIV-1, C-terminal SIVagmVer (protein)
chain: MDPKGEEDQDVSHQDLIKQYRKPRTACNNCYCKKCCFHCYACFLRKGLGITYHAFRTRRKKIASADRIPVPQQSISIRGRDSQTTQESQKKVEEQAKANLRISRKNLGDETRGPVGAGN
modifications: Tat derivative polypeptide
notes: TF SIVagmVer, cysteine-rich HIV-1, C-terminal SIVagmVer
As for B1, the “PD-L1 expression in primary 4T1 tumors versus controls” value was “reduced” in assay [1] and “reduced PD-L1 presence near the tumor edge” in assay [1] (listed as PIN-2). Besides, the “IFN-γ production of spleen cells versus control mice” value in assay [2] (40 ng SC weekly for 4 weeks, spleens day 33, 72 hr culture, all conditions of assay) is on record as “significantly (p<0.05*) higher”. Further, the “baseline levels of INF-γ secreted by splenocytes versus PBS control mice” value in assay [2] (no in vitro restimulation) was 8 -fold. Further, the stimulation index in assay [2] (tumor stimulators + IL4 + GM-CSF, versus control) came out at 53. Besides, the “expression of CD86” value in assay [3] was “higher expression of CD86 than either ISS (TLR) or LPS”. Moreover, the “animals with SM1 tumor growth suppressed for 16 days” value in assay [4] (40 ng SC days 0, 7, 14, 21) stood at 100%. Besides, in assay [4] (40 ng SC days 0, 7, 14, 21, p<0.01), the “difference in SM1 primary tumor growth versus control” value is listed as “highly statistically significant”. Further, the “animals remaining in remission at 28 days following implant” value in assay [4] (40 ng SC, one week after termination of the regimen) was 40%.
